Assay [1] concerns the target MLL1(3745–3969) SET domain construct containing the WIN motif, AviTag, biotinylated (human) (UniProt Q03164).
Assay [2] deals with MLL4(5308–5537) SET domain construct containing the WIN motif, AviTag, biotinylated (human) (UniProt O14686).

UniProt Q03164, sequence (Q03164 3745-3969): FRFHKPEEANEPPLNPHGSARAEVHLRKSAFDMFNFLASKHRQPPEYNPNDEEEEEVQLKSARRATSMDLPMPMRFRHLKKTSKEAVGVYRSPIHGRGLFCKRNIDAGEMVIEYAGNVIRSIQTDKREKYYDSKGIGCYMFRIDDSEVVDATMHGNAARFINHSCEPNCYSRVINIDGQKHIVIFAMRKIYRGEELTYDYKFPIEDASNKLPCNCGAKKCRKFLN

With ARTKQTARKSTGGKAPRY [histone H3 amino terminal peptide substrate (…-Y), unmodified], the figures for the KM (H3 peptide) of methyltransferase activity without WRAD, saturating SAM in assay [1] and in assay [2] were 430 µM and 251 µM, respectively.

(Values after paper PMC4597100.)
